From patent US20260285970 (published 2026)

What was measured:
Experiment in all cases: ELISA
IL-17 = target: IL-17
IL-2 = IL-2 (UniProt P60568)
IL-4 = target: T1, IL-4 (UniProt P05112)
T1 chain: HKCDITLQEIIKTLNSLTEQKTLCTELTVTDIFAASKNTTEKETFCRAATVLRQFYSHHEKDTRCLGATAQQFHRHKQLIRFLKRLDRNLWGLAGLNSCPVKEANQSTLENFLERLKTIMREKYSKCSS

BSA = BSA (bovine, UniProt P02769)

Measured: binding result

IL-17, sequence (chain, as listed by the source): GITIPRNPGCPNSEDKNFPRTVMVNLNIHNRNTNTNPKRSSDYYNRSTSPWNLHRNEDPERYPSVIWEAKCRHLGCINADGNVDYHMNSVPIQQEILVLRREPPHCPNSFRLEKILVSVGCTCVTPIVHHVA
IL-2, sequence (P60568 21-153): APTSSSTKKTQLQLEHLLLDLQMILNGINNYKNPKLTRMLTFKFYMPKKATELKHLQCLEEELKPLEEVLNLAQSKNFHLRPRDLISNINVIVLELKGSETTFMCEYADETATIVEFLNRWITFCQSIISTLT
BSA, sequence (P02769 25-607): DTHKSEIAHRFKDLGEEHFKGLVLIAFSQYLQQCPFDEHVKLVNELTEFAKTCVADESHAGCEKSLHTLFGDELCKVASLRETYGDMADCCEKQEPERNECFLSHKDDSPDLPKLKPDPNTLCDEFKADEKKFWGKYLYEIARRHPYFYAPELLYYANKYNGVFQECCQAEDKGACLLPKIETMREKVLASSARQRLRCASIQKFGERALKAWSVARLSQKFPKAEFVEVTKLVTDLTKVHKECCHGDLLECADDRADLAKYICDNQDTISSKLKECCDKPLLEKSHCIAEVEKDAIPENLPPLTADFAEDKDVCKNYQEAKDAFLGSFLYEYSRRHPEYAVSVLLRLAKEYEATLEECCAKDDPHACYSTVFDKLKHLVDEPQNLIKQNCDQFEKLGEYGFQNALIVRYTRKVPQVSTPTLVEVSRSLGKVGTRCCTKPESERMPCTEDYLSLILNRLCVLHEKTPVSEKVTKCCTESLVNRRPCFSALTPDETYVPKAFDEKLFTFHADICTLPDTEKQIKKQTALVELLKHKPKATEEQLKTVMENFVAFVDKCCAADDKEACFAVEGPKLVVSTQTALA

B1: BDG33.025 (antibody, V domains shown)
VH: QMQLVESGGGVVQPGRSLRLSCAASGFTFRTYGMHWVRQAPGKGLEWVADIWYDGSNKHYADSVKGRFTITRDNSKNTLNLQMNSLRAEDTAVYYCARAPQWYLVAEPFDLWGQGTMVTVSS
VL: SYVLTQPPSVSVAPGQTARITCGGNLIGSKLVHWYQQKPGQAPVLVVYDDSDRPSLIPERFSGSNSGNTATLTISRVEAGDEADYYCQVWDSSSDGVVFGGGTKLTVL
no binding: IL-17 | IL-2

B2: BDG33.023 (antibody, V domains shown)
VH: QMQLVESGGGVVQPGRSLRLSCAASGFAFRTYGMHWVRQAPGKGLEWVAVIWYDGSNTHYADSVKGRFTITRDNSKNTLNLQMNSLRAEDTAVYYCARAPQWYLSAEAFDLWGQGTMVTVSS
VL: SYVLTQPPSVSVAPGQTARITCGGNLIGSKLVHWYQQKPGQAPVLVVYDDSDRPSRIPERFSGSNSGNTATLTISRVEAGDEADYYCQVWDHSSDHVVFGGGTKLTVL
no binding: IL-4 | BSA | IL-17 | IL-2
